According to paper PMC9291269:
Like-named read-outs stand apart in the source and are kept apart here.

T1: recombinant human serum amyloid A1 (rSAA1) (human), P0DJI8
T1 chain: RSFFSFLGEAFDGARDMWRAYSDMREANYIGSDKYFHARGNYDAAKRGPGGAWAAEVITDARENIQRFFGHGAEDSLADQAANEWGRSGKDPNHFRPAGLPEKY


Tests used:
[1] = target: SAA1 secreted by BEAS-2B cells (lipid-free, in culture supernatant) (human (endogenous in BEAS-2B)); experiment: immunoblot of HDL-depleted cell culture supernatants
[2] = target: SAA1 secreted by BEAS-2B cells (lipid-free, in culture supernatant) (human (endogenous in BEAS-2B)); experiment: as above; remark: listed apart in the source
[3] = target: T1, recombinant human serum amyloid A1 …; experiment: immunoblot of cell culture supernatants; conditions: remark: other sources report otherwise
[4] = target: T1, recombinant human serum amyloid A1 …; experiment: immunoblot of cell culture supernatants; conditions: remark: other sources report otherwise

stoichiometry N [1]	stoichiometry N [2]	stoichiometry N [3]	stoichiometry N [4]	Molecule
6	2			SAA1 secreted by BEAS-2B cells (lipid-free, in culture supernatant) (natural protein)
		6	2	recombinant human serum amyloid A1 (rSAA1), P0DJI8 19-122 (natural protein) RSFFSFLGEAFDGARDMWRAYSDMREANYIGSDKYFHARGNYDAAKRGPGGAWAAEVITDARENIQRFFGHGAEDSLADQAANEWGRSGKDPNHFRPAGLPEKY
